Experimental data: patent publication US20200299408A1 (Genentech, published 2020)
“And” between values parts separate entries of the source, which are not always exact repeats. Equal values may be shown once. Read-outs that look alike come from different tables or passages of the source. Each block holds one binder with its values, some of them ahead of it.

Assays:
human CD3 on T cells [1] = target: T1, human CD3 on T cells (human, UniProt P07766 22-207); experiment: Scatchard; table headed 'Bivalent Binding Affinity', though its footnote reads 'monovalent binding Kd measured by scatchard'; cells not named
T1 construct: whole, on cells; On cells CD3ε stands in the CD3/TCR complex; also called CD3 antigen; CD3ε

human CD3 on T cells [2] = target: T1, human CD3 on T cells; experiment: Scatchard; table 'Monovalent Binding Affinity'; the partner arm is not given, the TDB is taken from legend paragraph 149, p-1410 and Figure 16; cells not named
human CD3 on T cells [3] = target: T1, human CD3 on T cells; experiment: FACS on Jurkat cells (CD3), anti-huIgG-PE; number printed beside the curve without a quantity name, taken as EC50
Experimental: (§1) Binding affinities for the each of the CD3/CD20 TDBs were tested by Biacore or FACS analysis, as described above for the anti-CD3 antibodies. Briefly, for Biacore binding assays, human CD3εγ was immobilized on Biacore Series S CM5 sensor chip using the amine coupling kit from Biacore and CD3/CD20 TDBs or Fab variants thereof were in the flow through. For FACS binding assays, either Bjab cells (for B cell antigens) or Jurkat cells (for CD3 antigen) were incubated with various concentrations of TDB antibodies at 4° C. for 30 minutes, then cells were washed and incubated with 2nd antibody (anti-huIgG-PE; BD Bioscience) for another 15 minutes, before cells were washed again and ready for FACS analysis.

human CD3 on T cells [4] = target: T1, human CD3 on T cells; experiment: FACS on Jurkat cells, anti-huIgG-PE, MFI/PE; panel 'Jurkat / CD3 arm'
human CD3 on T cells [5] = target: T1, human CD3 on T cells; experiment: FACS on Jurkat cells (CD3), anti-huIgG-PE; number printed beside the curve without a quantity name, taken as EC50; remark: listed apart in the source
Experimental: as §1

human CD3 on T cells [6] = target: T1, human CD3 on T cells; experiment: as above; remark: listed apart in the source
Experimental: as §1

[7] = target: T2, commercial CD3ε (Creative Biomart, Catalog Number CD3E-2194H) (human, UniProt P07766); experiment: binding affinity on commercial CD3ε (Creative Biomart CD3E-2194H); method not stated in the legend
T2 construct: commercial recombinant protein; also called commercial CD3E

N4A = target: T3, N4A; experiment: phage ELISA: anti-CD3 antibody coated on the plate, dilution series of M13 phage displaying the CD3εγ variant, anti-M13-HRP, OD A450; [phage] axis 10^-3 to 10^0 without unit
T3 construct: Residue number counts from the N-terminus of CD3ε; also called CD3εγ N4A; CD3 mutant N4A
T3 single chain CD3ε-26mer linker-CD3γ: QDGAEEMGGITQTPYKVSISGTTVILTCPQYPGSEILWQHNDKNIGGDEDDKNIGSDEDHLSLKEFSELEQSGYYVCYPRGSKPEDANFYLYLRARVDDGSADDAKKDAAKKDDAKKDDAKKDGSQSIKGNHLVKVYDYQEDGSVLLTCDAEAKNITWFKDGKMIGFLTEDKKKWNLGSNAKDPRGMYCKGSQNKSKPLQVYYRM
Experimental: (§2) This CD3εγ phagemid was used as a template for making single alanine mutations in CD3ε by Kunkel mutagenesis. […] The effect of alanine mutation in CD3εγ on anti-CD3 antibody binding was assessed using a phage ELISA. Each anti-CD3 antibody was immobilized on a NUNC maxisorp plate at 2 μg/ml in PBS buffer overnight at 4° C. Purified phage supernatant displaying a CD3εγ alanine variant (1.0 OD₄₅₀) was added to the plate and allowed to bind at room temperature with shaking for 1 h. After washing, bound phage was detected with anti-M13-HRP (GE Healthcare cat #45-001-419).

G3A = target: T4, G3A; experiment: as above
T4 construct: Residue number counts from the N-terminus of CD3ε; also called CD3εγ G3A; CD3 mutant G3A
T4 single chain CD3ε-26mer linker-CD3γ: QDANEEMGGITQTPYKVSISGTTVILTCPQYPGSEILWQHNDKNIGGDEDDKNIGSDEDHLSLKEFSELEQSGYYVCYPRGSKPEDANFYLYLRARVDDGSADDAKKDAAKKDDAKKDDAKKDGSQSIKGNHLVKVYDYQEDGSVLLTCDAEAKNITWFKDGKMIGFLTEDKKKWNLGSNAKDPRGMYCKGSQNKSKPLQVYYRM
Experimental: as §2

E5A = target: T5, E5A; experiment: as above
T5 construct: Residue number counts from the N-terminus of CD3ε; also called CD3εγ E5A; CD3 mutant E5A
T5 single chain CD3ε-26mer linker-CD3γ: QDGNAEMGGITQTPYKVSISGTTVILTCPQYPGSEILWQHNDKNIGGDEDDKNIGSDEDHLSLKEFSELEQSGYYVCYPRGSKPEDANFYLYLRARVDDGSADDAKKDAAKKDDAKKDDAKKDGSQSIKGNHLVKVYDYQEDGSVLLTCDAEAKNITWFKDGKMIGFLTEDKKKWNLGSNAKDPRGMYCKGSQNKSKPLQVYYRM
Experimental: as §2

E6A = target: T6, E6A; experiment: as above
T6 construct: Residue number counts from the N-terminus of CD3ε; also called CD3εγ E6A; CD3 mutant E6A
T6 single chain CD3ε-26mer linker-CD3γ: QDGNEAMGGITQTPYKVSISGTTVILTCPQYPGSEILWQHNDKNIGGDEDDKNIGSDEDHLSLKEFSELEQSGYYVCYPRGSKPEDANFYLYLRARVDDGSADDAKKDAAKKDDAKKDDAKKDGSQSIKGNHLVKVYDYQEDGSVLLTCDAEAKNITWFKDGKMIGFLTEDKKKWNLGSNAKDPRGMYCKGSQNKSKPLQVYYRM
Experimental: as §2

[8] = target: T7, single chain human CD3ε-26mer-CD3γ (CD3εγ) (human); experiment: monovalent binding affinity, method not stated on the sheet; column huCD3εγ
T7 construct: also called human CD3εγ
T7 chain: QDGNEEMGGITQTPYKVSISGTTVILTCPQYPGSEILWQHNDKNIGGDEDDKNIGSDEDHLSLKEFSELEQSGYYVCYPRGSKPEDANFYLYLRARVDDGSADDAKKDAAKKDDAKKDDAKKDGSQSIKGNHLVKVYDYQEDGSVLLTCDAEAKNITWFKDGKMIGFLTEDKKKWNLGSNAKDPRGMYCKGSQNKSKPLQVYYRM

[9] = target: T7, single chain human CD3ε-26mer-CD3γ …; experiment: Biacore, human CD3εγ on chip, antibody in flow-through
[10] = target: T7, single chain human CD3ε-26mer-CD3γ …; experiment: Biacore, monovalent KD of the CD3 arm; CD3 antigen not named on the sheet (reactivity hu, cyno)
cyCD3εγ = target: T8, cyCD3εγ (cynomolgus monkey); experiment: monovalent binding affinity, method not stated on the sheet
T8 chain 1: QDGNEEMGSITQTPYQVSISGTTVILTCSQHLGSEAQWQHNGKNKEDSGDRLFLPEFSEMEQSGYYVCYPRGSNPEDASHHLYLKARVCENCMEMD
T8 chain 2: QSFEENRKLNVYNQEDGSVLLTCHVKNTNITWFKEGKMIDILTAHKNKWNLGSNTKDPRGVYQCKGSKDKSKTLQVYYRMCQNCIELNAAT

[11] = target: T2, commercial CD3ε (Creative Biomart, …); experiment: binding affinity on commercial CD3ε (Creative Biomart CD3E-2194H); method not stated in the legend; remark: listed apart in the source

B1: K&H 2H7v16/hu UCHT1vM1 (bispecific antibody, V domains shown)
VH 1: EVQLVESGGGLVQPGGSLRLSCAASGYTFTSYNMHWVRQAPGKGLEWVGAIYPGNGDTSYNQKFKGRFTISVDKSKNTLYLQMNSLRAEDTAVYYCARVVYYSNSYWYFDVWGQGTLVTVSS
VL 1: DIQMTQSPSSLSASVGDRVTITCRASSSVSYMHWYQQKPGKAPKPLIYAPSNLASGVPSRFSGSGSGTDFTLTISSLQPEDFATYYCQQWSFNPPTFGQGTKVEIK
VH 2: EVQLVESGGGLVQPGGSLRLSCAASGYSFTGYTMNWVRQAPGKGLEWVALINPYKGVSTYADSVKGRFTISVDKSKNTAYLQMNSLRAEDTAVYYCARSGYYGDSDWYFDVWGQGTLVTVSS
VL 2: DIQMTQSPSSLSASVGDRVTITCRASQDIRNYLNWYQQKPGKAPKLLIYYTSRLESGVPSRFSGSGSGTDYTLTISSLQPEDFATYYCQQGNTLPWTFGQGTKVEIK
modifications: Knob-into-hole full-length IgG; constant regions are not in the letters.
notes: also called CD3/CD20 TDB 2H7v16/UCHT1vM1
Kd (human CD3 on T cells [1]): 40 nM | Kd (human CD3 on T cells [2]): 318 nM

B2: CD3/CD20 TDB 2H7v16/UCHT1v9 (bispecific antibody, human IgG1, V domains shown)
VH 1: EVQLVESGGGLVQPGGSLRLSCAASGYTFTSYNMHWVRQAPGKGLEWVGAIYPGNGDTSYNQKFKGRFTISVDKSKNTLYLQMNSLRAEDTAVYYCARVVYYSNSYWYFDVWGQGTLVTVSS
VL 1: DIQMTQSPSSLSASVGDRVTITCRASSSVSYMHWYQQKPGKAPKPLIYAPSNLASGVPSRFSGSGSGTDFTLTISSLQPEDFATYYCQQWSFNPPTFGQGTKVEIK
VH 2: EVQLVESGGGLVQPGGSLRLSCAASGYSFTGYTMNWVRQAPGKDLEWVALINPYKGVSTYNQKFKDRFTISVDKSKNTAYLQMNSLRAEDTAVYYCARSGYYGDSDWYFDVWGQGTLVTVSS
VL 2: DIQMTQSPSSLSASVGDRVTITCRASQDIRNYLNWYQQKPGKAPKLLIYYTSRLESGVPSRFSGSGSGTDYTLTISSLQPEDFATYYCQQGNTLPWTFGQGTKLELK
notes: also called TDB A
EC50 (human CD3 on T cells [3]): 0.21 µg/mL and 1.4 nM | Kd (human CD3 on T cells [1]): 3 nM | Kd (human CD3 on T cells [2]): 4.2 nM | EC50 (read off the curve) (human CD3 on T cells [4]): ~0.1 µg/mL | EC50 (human CD3 on T cells [5]): 0.533 µg/mL | EC50 (human CD3 on T cells [6]): 0.09 µg/mL and 0.6 nM

B4: anti-CD3 clone 40G5c (antibody, V domains shown)
VH: EVQLVQSGAEVKKPGASVKVSCKASGYTFTNYYIHWVRQAPGQGLEWIGWIYPGDGNTKYNEKFKGRATLTADTSTSTAYLELSSLRSEDTAVYYCARDSYSNYYFDYWGQGTLVTVSS
VL: DIVMTQSPDSLAVSLGERATINCKSSQSLLNSRTRKNYLAWYQQKPGQPPKLLIYWASTRESGVPDRFSGSGSGTDFTLTISSLQAEDVAVYYCTQSFILRTFGQGTKVEIK
notes: also called hu40G5c
binding result (N4A): binds | binding result (G3A): binds | binding result (E5A): binds | binding result (E6A): binds | Kd [8]: 12 nM | Kd [9]: 15 nM | koff [9]: 0.0176 s⁻¹ | kon [9]: 1.2e+06 M⁻¹ s⁻¹ | Kd [10]: 51 nM | Kd (cyCD3εγ): 14 nM

Continued, values first:

Kd [7]: 0.5 nM
B3: humanized 38E4 variant: VH1 graft + R71A / K4 graft + P43S (antibody, V domains shown)
VH: EVQLVQSGAEVKKPGASVKVSCKASGFTFTSYYIHWVRQAPGQGLEWIGWIYPENDNTKYNEKFKDRVTITADTSTSTAYLELSSLRSEDTAVYYCARDGYSRYYFDYWGQGTLVTVSS
VL: DIVMTQSPDSLAVSLGERATINCKSSQSLLNSRTRKNYLAWYQQKPGQSPKLLIYWTSTRKSGVPDRFSGSGSGTDFTLTISSLQAEDVAVYYCKQSFILRTFGQGTKVEIK

Kd [11]: 1.1 nM
B5: murine 41D9 (antibody, V domains shown)
VH: QIQLVQSGPELKKPGETVKISCKASGYTFTNYGMNWVKQAPGKGLKWMGWINTNTGKPTYAEEFKGRFVFSLETSASTTYLQINNLKNEDTATYFCARRGDYRYAWFLYWGQGTLVTVSA
VL: QAVVTQESALTTSPGGTVILTCRSSTGAVTTSNYANWVQEKPDHLFTGLIGGTSNRAPGVPVRFSGSLIGDKAALTITGAQTEDDAMYFCALWYSTHFVFGGGTKVTV
notes: also called 41D9a
